According to paper PMC5864728:

Molecular target: human ICAM-1 extracellular domain with human IgG1 Fc (UniProt P05362)
Assay: flow cytometry on cells
Details: HEK293FT cells; co-expressed with β2-WT and GFP-TH; parent: est. 270; read off a plot

Sequence of UniProt P05362 (P05362 whole entry, looked up, the tested form may be a part): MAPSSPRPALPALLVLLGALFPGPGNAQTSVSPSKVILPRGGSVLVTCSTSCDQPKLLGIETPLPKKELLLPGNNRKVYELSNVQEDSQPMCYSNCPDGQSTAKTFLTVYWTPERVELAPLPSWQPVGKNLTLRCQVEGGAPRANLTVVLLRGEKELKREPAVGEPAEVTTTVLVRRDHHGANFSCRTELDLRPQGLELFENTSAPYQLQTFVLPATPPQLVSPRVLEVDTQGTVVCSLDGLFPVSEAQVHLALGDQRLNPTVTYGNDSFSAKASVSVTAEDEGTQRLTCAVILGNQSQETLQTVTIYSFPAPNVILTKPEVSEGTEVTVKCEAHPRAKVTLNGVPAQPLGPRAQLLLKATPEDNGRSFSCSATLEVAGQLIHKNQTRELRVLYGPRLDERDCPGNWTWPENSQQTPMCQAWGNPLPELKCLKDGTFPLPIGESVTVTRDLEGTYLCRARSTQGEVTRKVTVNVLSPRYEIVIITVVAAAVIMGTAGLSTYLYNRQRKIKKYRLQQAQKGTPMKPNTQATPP

For αL-WT/β2-WT αL:K1097Y, the response (Normalized MFI in %) was 190.

Work on αL-WT/β2-WT αL:L1096Y yielded a response (Normalized MFI in %) of 230.
